According to article PMC5993284, “Peptide inhibitors of the anaphase promoting-complex that cause sensitivity to microtubule poison” (PLoS ONE, 2018):
Several values for one entry are separate records, joined by “and”; a condition that tells them apart may be missing. Equal values may be shown once. Read-outs that look alike come from different tables or passages of the source. Ends that are not written are not given here.

Molecular target: T1, APC/C^Cdc20 (Saccharomyces cerevisiae, UniProt P16522+P53886)
T1 construct: constructed within full-length Cdc20 by site-directed mutagenesis for analysis in vitro in the APC/C^Cdc20 assay; The APC/C was purified for enzyme assays from 1 mL of TAP-tagged Cdc16 yeast extract (SCSY51); made in house; host or cells: Cdc20: in vitro transcription/translation in rabbit reticulocyte lysate, used unpurified; APC/C: S. cerevisiae strain SCSY51 (Cdc16-TAP) extract, captured on IgG magnetic beads
Experiment: biochemical
Format: biochemical
Conditions: for inhibition of APC/C^Cdc20 activity (in words): 220 μM peptide, time course 0-60 minutes, vs buffer only, n = 3; for ubiquitinated Pds1 species at 60 minutes (in words): inhibitor at about 4-times the IC50, S2 Fig C
Method: Full-length, radio-labeled protein purifications were preformed as previously described. ^35S-Pds1 was prepared in a 500 μL IVT/T (In Vitro Transcription/Translation) reaction (Promega, USA), which contained 400 μL rabbit reticulocyte lysate, 20 μL of L-^35S-methionine (PerkinElmer, USA), 10 μg of plasmid DNA, and the remaining volume as nuclease-free ddH2O as recommended by the manufacturer. The reaction mixture was incubated for 2 hours at room temperature and gently mixed every 30 minutes. The reaction was added to pre-equilibrated IgG Sepharose beads (GE Healthcare, USA) in Bio-spin disposable chromatography columns (Bio-Rad, USA) for binding for 2 hours at room temperature. To ensure efficient binding, the beads were re-suspended several times every 30 minutes. After binding, the beads were washed with 5 mL wash buffer, containing 200 mM 4-(2-hydroxyethyl)-1-piperazineethanesulfonic acid (HEPES) at pH 8.0, 150 mM NaCl, 10% (v/v) glycerol, and 1 mM dithiothreitol (DTT). The ^35S-Pds1 was cleaved from the beads using TEV (Tobacco Etch Virus) protease in 1x TEV buffer (Invitrogen, USA) for 2 hours at room temperature, and the mixture was re-suspended several times every 30 minutes to promote efficient cleavage. The elution was collected and concentrated by employing an Amicon Ultra filter column (Millipore, Ireland). The concentrated ^35S-Pds1 was collected in a new tube, and stored at -20 °C.
The production of Cdc20 or Cdh1 was prepared by IVT/T reactions, where 16 μL of rabbit reticulocyte lysate, 20 μM L-methionine, 0.4 μg of plasmid DNA, and a volume of nuclease-free ddH2O for a total volume of 20 μL. This freshly synthesized Cdc20 or Cdh1 protein was used directly in all APC/C assays after a 1-hour synthesis reaction at room temperature. The APC/C was purified for enzyme assays from 1 mL of TAP-tagged Cdc16 yeast extract (SCSY51) where extract was mixed with 50 μL 50:50 slurry magnetic beads (Invitrogen, Norway) for 2 hours at 4 °C. After incubation, the beads were washed with 3 mL APC/C wash buffer (200 mM of HEPES, 150 mM of NaCl and 10% (v/v) of glycerol). APC/C bound to IgG magnetic beads was used directly in the enzyme assays.
APC/C assays were performed by adding the reaction contents in following order: 4.3 μL of QAH buffer, 20 μL of rabbit reticulocyte lysate containing Cdc20 or Cdh1 with or without an additional volume of recombinant checkpoint protein(s) or inhibitor peptides, 2.4 μL ubiquitin aldehyde (Boston Biochem, USA), APC/C, 16 μL pre-charged E1/E2/ATP/ubiquitin mix, and 13.3 μL of ^35S-Pds1 with QAH buffer (20 mM HEPES at pH 8.0, 100 mM NaCl, and 1 mM MgCl2). The E1/E2/ATP/ubiquitin mix were pre-charged by mixing 1 μL of E1 (Boston Biochem, USA), 1 μL of E2 (Boston Biochem, USA), 14.4 μL of ATP, 14.4 μL of […] (Boston Biochem, USA), and 17.2 μL of QAH buffer and incubated for 15 minutes at room temperature. Approximately 15 μL of samples were taken out at each time point, and the reaction was stopped by the addition of 2x protein sample buffer (125 mM Tris-HCl pH 6.8, 4% SDS, 20% glycerol, and 0.002% bromophenol blue, with 10% (final v/v) 2-mercaptoethanol added in fresh directly before use).
For inhibitor titration and time-course experiments, recombinant Bub3, Mad2, Mad3, and the Mad3-Bub3 complex were expressed and purified as previously described. […] For inhibition of APC/C the co-factor Cdc20 or Cdh1 was made fresh by IVT/T, and pure recombinant checkpoint proteins or inhibitor peptides were added to the IVT/T mixture and incubated for an additional hour at room temperature. In titrations, a dilution series of the checkpoint protein(s) were made before incubation with the Cdc20 co-factor. SDS-PAGE was performed using stand protocols (BioRad, USA).

[1] = MCC subunits, 4-parameter Hill fit, ± sd
[2] = MCC subunits, titration, 4-parameter Hill fit, ± sd from three independent titrations, 35S-Pds1 substrate, read-out: IC50
[3] = Mad3-Bub3 complex in the presence of 0.5 μM Mad2, ± sd, three independent titrations, read-out: IC50

EV25: C-box containing peptide EV25 (Cdc20 134–158) (EVDEQFTVAADRYIPILQGASQNKV; UniProt P26309 134-158, looked up, fragment)
inhibition of APC/C^Cdc20 activity (in words) (35S-Pds1 substrate): A significant level of APC/C^Cdc20 inhibition was observed only in the presence of the C-box2 peptide

PL29: PL29 (Cdc20 167–196) that does not contain the KILR-motif (LPPPNASPISHLRAQTKIVFKQNVAEACGL; UniProt P26309 167-196, looked up, fragment)
inhibition of APC/C^Cdc20 activity (in words) (35S-Pds1 substrate): displayed the ability to inhibit APC/C^Cdc20 activity

DMNKRILQYMPEPPKCSSLRQKSYIMKKRTHYSYQQ [DQ36]
IC50: ~150000 nM | IC50 weaker than that of PQ65 (times) (ratio of IC50 relative to PQ65): about 3 times

AV16: C-box containing peptide AV16 (Cdc20 143–158) (ADRYIPILQGASQNKV; UniProt P26309 143-158, looked up, fragment)
inhibition of APC/C^Cdc20 activity (in words) (35S-Pds1 substrate): A significant level of APC/C^Cdc20 inhibition was observed only in the presence of the C-box2 peptide

DS17: DS17 (Cdc20 197–212) peptide derived from the N-terminal portion of the DQ36 peptide (DMNKRILQYMPEPPKC; UniProt P26309 197-212, looked up, fragment)
inhibition of APC/C^Cdc20 activity (in words) (35S-Pds1 substrate): no significant inhibition was observed

C-box1: C-box containing peptide C-box1 (130–167) (TTSREVDEQFTVAADRYIPILQGASQNKVDPETLHEAL; UniProt P26309 130-167, looked up, fragment)
inhibition of APC/C^Cdc20 activity (in words) (35S-Pds1 substrate): A significant level of APC/C^Cdc20 inhibition was observed only in the presence of the C-box2 peptide

MKVLDDWFSRKFSKAVHGNNHGTISLSTLSYIRVHKLVK [Tyc1]
IC50: ~50000 nM

B1: Mad3: pure recombinant MCC component Mad3 (protein, UniProt P47074 1-515, looked up)
Spindle assembly checkpoint …: MKAYAKKRISYMPSSPSQNVINFEEIETQKENILPLKEGRSAAALSKAIHQPLVEINQVKSSFEQRLIDELPALSDPITLYLEYIKWLNNAYPQGGNSKQSGMLTLLERCLSHLKDLERYRNDVRFLKIWFWYIELFTRNSFMESRDIFMYMLRNGIGSELASFYEEFTNLLIQKEKFQYAVKILQLGIKNKARPNKVLEDRLNHLLRELGENNIQLGNEISMDSLESTVLGKTRSEFVNRLELANQNGTSSDVNLTKNNVFVDGEESDVELFETPNRGVYRDGWENFDLKAERNKENNLRISLLEANTNLGELKQHEMLSQKKRPYDEKLPIFRDSIGRSDPVYQMINTKDQKPEKIDCNFKLIYCEDEESKGGRLEFSLEEVLAISRNVYKRVRTNRKHPREANLGQEESANQKEAEAQSKRPKISRKALVSKSLTPSNQGRMFSGEEYINCPMTPKGRSTETSDIISAVKPRQLTPILEMRESNSFSQSKNSEIISDDDKSSSSFISYPPQR
Hill coefficient [1]: 5.0 ± 0.9 and 5.0 | IC50 [2]: 240 ± 10 nM

B2: Bub3: pure recombinant MCC component Bub3 (protein, UniProt P26449 1-341, looked up)
Spindle assembly checkpoint …: MQIVQIEQAPKDYISDIKIIPSKSLLLITSWDGSLTVYKFDIQAKNVDLLQSLRYKHPLLCCNFIDNTDLQIYVGTVQGEILKVDLIGSPSFQALTNNEANLGICRICKYGDDKLIAASWDGLIEVIDPRNYGDGVIAVKNLNSNNTKVKNKIFTMDTNSSRLIVGMNNSQVQWFRLPLCEDDNGTIEESGLKYQIRDVALLPKEQEGYACSSIDGRVAVEFFDDQGDDYNSSKRFAFRCHRLNLKDTNLAYPVNSIEFSPRHKFLYTAGSDGIISCWNLQTRKKIKNFAKFNEDSVVKIACSDNILCLATSDDTFKTNAAIDQTIELNASSIYIIFDYEN
Hill coefficient [1]: 2.2 ± 0.4 and 2.2 | IC50 [2]: 8700 ± 2400 nM

B3: Mad3-Bub3 complex: recombinant Mad3-Bub3 complex (protein, UniProt P47074 1-515; P26449 1-341, looked up)
Spindle assembly checkpoint … 1: B1 Spindle assembly checkpoint …
Spindle assembly checkpoint … 2: B2 Spindle assembly checkpoint …
Hill coefficient [1]: 7.3 ± 2.6 | Hill coefficient (MCC subunits, 4-parameter Hill fit, ± sd, listed as Mad3-Bub3): 7.3 | IC50 [2]: 89 ± 4 nM | Hill coefficient (Mad3-Bub3 complex in the presence of 0.5 μM Mad2, ± sd): 8.2 ±1.9 | IC50 [3]: 70 ± 3 nM | ubiquitinated Pds1 species at 60 minutes (in words): the Pds1 accumulated in these lower molecular weight species

B4: Mad2: pure recombinant MCC component Mad2 (protein)
chain: MSQSISLKGSTRTVTEFFEYSINSILYQRGVYPAEDFVTVKKYDLTLLKTHDDELKDYIRKILLQVHRWLLGGKCNQLVLCIVDKDEGEVVERWSFNVQHISGNSNGQDDVVDLNTTQSQIRALIRQITSSVTFLPELTKEGGYTFTVLAYTDADAKVPLEWADSNSKEIPDGEVVQFKTFSTNDHKVGAQVSYKY
inhibition of APC/C^Cdc20 activity (in words) (35S-Pds1 substrate): yields a high level of inhibition | Hill coefficient [1]: 2.4 ± 0.3 and 2.4 | IC50 [2]: 2300 ± 500 nM | ubiquitinated Pds1 species at 60 minutes (in words): the small amount of Pds1 that is ubiquitinated appears to be fully poly-ubiquitinated

B5: Mad3-Bub3 complex + 0.5 μM Mad2: Mad3-Bub3 complex in the presence of 0.5 μM Mad2 (protein)
chain 1: B1 Spindle assembly checkpoint …
chain 2: B2 Spindle assembly checkpoint …
chain 3: B4 chain
modifications: Mad2 added separately at 0.5 uM
IC50 [3]: 70 ± 3 nM
